Results taken from publication PMC10980799, “The transcription of the main gene associated with Treacher–Collins syndrome (TCOF1) is regulated by G-quadruplexes and cellular nucleic acid binding protein (CNBP)”.

How the values were obtained:
CNBP [1] = target: T1, CNBP (Homo sapiens, UniProt P62633 1-177); experiment: EMSA; 100 mM Li+; apparent Kd, SEM, n=3; EMSA: 20 mM HEPES pH 8.0, 10 mM MgCl2, 1 mM EDTA, 0.5 ug/ul heparin, 1 mM DTT, 1 ug/ul BSA, 10% glycerol, 100 mM KCl or LiCl, probe 0.75 uM, 30 min at 37 C; CNBP diluted in 50 mM Tris-HCl pH 7.5, 300 mM NaCl, 1 mM DTT, 5 mM imidazole, 0.1 mM ZnCl2; conditions: protein: recombinant; tags: tag-free (from pET-32a-TEV-CNBP, tag removed); label: none (SYBR Gold stain); single strand, unfolded
T1 sequence (P62633 whole entry): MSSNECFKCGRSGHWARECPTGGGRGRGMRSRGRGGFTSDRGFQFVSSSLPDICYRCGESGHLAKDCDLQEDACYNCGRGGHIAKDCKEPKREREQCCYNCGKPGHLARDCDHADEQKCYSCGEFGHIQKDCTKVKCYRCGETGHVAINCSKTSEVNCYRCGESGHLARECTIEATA

CNBP [2] = target: T1, CNBP; experiment: EMSA; 100 mM K+; apparent Kd, SEM, n=3; EMSA: 20 mM HEPES pH 8.0, 10 mM MgCl2, 1 mM EDTA, 0.5 ug/ul heparin, 1 mM DTT, 1 ug/ul BSA, 10% glycerol, 100 mM KCl or LiCl, probe 0.75 uM, 30 min at 37 C; CNBP diluted in 50 mM Tris-HCl pH 7.5, 300 mM NaCl, 1 mM DTT, 5 mM imidazole, 0.1 mM ZnCl2; conditions: protein: recombinant, tags: tag-free (from pET-32a-TEV-CNBP, tag removed), label: none (SYBR Gold stain)

Binder | Kd (CNBP [1]) [nM] | Kd (CNBP [2]; parallel G4) [nM] | further results
TGCTGGTGGTCATGGGGGAGTGGAGAGCAT (ssDNA) [Dr2393 unfolded (Li+)] | 257 ± 70 |  | 
TGCTGGTGGTCATGGGGGAGTGGAGAGCAT (structured_DNA) [Dr2393 folded as G4 (K+)] |  |  | Kd (CNBP [2]; G4): 331 ± 80 nM
TGGGGTGGGGTGAGGTGGGGAAGAGGGAAC (structured_DNA) [Hs791 folded as G4 (K+)] |  | 271 ± 70 | 
GTGTATGTGGGGGGGGGGGGCGGGTGGTAG (structured_DNA) [Hs2160 folded as G4 (K+)] |  | 431 ± 120 | 
TGGGGTGGGGTGAGGTGGGGAAGAGGGAAC (ssDNA) [Hs791 unfolded (Li+)] | 199 ± 55 |  | 
GTGTATGTGGGGGGGGGGGGCGGGTGGTAG (ssDNA) [Hs2160 unfolded (Li+)] | 287 ± 100 |  | 
